Publication PMC5628889, “Thermal adaptation of mesophilic and thermophilic FtsZ assembly by modulation of the critical concentration” (PLoS ONE, 2017)
Values belong to the molecule of their own block, whether it stands above or below them.

Assays:
[1] = target: Methanocaldococcus jannaschii FtsZ-his6 fusion protein (Methanocaldococcus jannaschii) (UniProt Q57816); test: 90° light scattering; MjFtsZ self-assembly started with 1 mM GTP; 50 mM MES-KOH pH 6.5, 5 mM MgCl2, 300 mM KCl; 50°C; critical concentration from extent of polymerization vs total protein; k_depol from the slope of the disassembly stage (7 μM); monomer addition at polymer ends, apparent
[2] = target: Methanocaldococcus jannaschii FtsZ-his6 fusion protein (Methanocaldococcus jannaschii) (UniProt Q57816); test: 90° light scattering; MjFtsZ self-assembly started with 1 mM GTP; 50 mM MES-KOH pH 6.5, 5 mM MgCl2, 300 mM KCl; 40°C; critical concentration from extent of polymerization vs total protein; k_depol from the slope of the disassembly stage (7 μM); monomer addition at polymer ends, apparent
[3] = target: Methanocaldococcus jannaschii FtsZ-his6 fusion protein (Methanocaldococcus jannaschii) (UniProt Q57816); test: 90° light scattering; MjFtsZ self-assembly started with 1 mM GTP; 50 mM MES-KOH pH 6.5, 5 mM MgCl2, 300 mM KCl; 70°C; critical concentration from extent of polymerization vs total protein; k_depol from the slope of the disassembly stage (7 μM); monomer addition at polymer ends, apparent
[4] = target: Methanocaldococcus jannaschii FtsZ-his6 fusion protein (Methanocaldococcus jannaschii) (UniProt Q57816)
[5] = target: Methanocaldococcus jannaschii FtsZ-his6 fusion protein (Methanocaldococcus jannaschii) (UniProt Q57816); test: 90° light scattering; MjFtsZ self-assembly started with 1 mM GTP; 50 mM MES-KOH pH 6.5, 5 mM MgCl2, 300 mM KCl; 60°C; critical concentration from extent of polymerization vs total protein; k_depol from the slope of the disassembly stage (7 μM); monomer addition at polymer ends, apparent
[6] = target: Methanocaldococcus jannaschii FtsZ-his6 fusion protein (Methanocaldococcus jannaschii) (UniProt Q57816); test: van't Hoff analysis of critical concentrations (light scattering + GTPase activity); MjFtsZ; global fit of ln(1/CC) vs 1/T (40-80°C) with the integrated van't Hoff equation; parameters extrapolated to the optimal growth temperature; polymer elongation, apparent
[7] = target: Methanocaldococcus jannaschii FtsZ-his6 fusion protein (Methanocaldococcus jannaschii) (UniProt Q57816); test: 90° light scattering; MjFtsZ self-assembly started with 1 mM GTP; 50 mM MES-KOH pH 6.5, 5 mM MgCl2, 300 mM KCl; 80°C; critical concentration from extent of polymerization vs total protein; k_depol from the slope of the disassembly stage (7 μM); monomer addition at polymer ends, apparent
[8] = target: Methanocaldococcus jannaschii FtsZ-his6 fusion protein (Methanocaldococcus jannaschii) (UniProt Q57816); test: negative-stain transmission electron microscopy; 10 μM MjFtsZ polymerized with 1 mM GTP at 80°C; 50 mM MES-KOH pH 6.5, 5 mM MgCl2, 300 mM KCl; 2% uranyl acetate
[9] = target: the molecule itself; test: negative-stain transmission electron microscopy; 10 μM EcFtsZ polymerized with 1 mM GTP at 30°C; 50 mM MES-KOH pH 6.5, 5 mM MgCl2, 50 mM KCl; 2% uranyl acetate
[10] = target: the molecule itself; test: van't Hoff analysis of critical concentrations (light scattering + GTPase activity); EcFtsZ; global fit of ln(1/CC) vs 1/T (10-30°C) with the integrated van't Hoff equation; parameters extrapolated to the optimal growth temperature; polymer elongation, apparent

- critical concentration for polymerization C (C-Pol) (= 1/Kp) [1]: 1.8 µM
- critical concentration for polymerization C (C-Pol) (= 1/Kp) [2]: 3.9 µM
- critical concentration for polymerization C (C-Pol) (= 1/Kp) [3]: 1.6 µM
- critical concentration for the GTPase activity C (C-GTPase) (malachite green phosphate release, 1 mM GTP), 40°C [4]: 5.5 µM
- critical concentration for the GTPase activity C (C-GTPase) (malachite green phosphate release, 1 mM GTP), 45°C [4]: 4.7 µM
- critical concentration for the GTPase activity C (C-GTPase) (malachite green phosphate release, 1 mM GTP), 50°C [4]: 3.3 µM
- critical concentration for the GTPase activity C (C-GTPase) (malachite green phosphate release, 1 mM GTP), 55°C [4]: 3.3 µM
- critical concentration for the GTPase activity C (C-GTPase) (malachite green phosphate release, 1 mM GTP), 65°C [4]: 2.2 µM
- critical concentration for the GTPase activity C (C-GTPase) (malachite green phosphate release, 1 mM GTP), 70°C [4]: 1 µM
- critical concentration for the GTPase activity C (C-GTPase) (malachite green phosphate release, 1 mM GTP), 80°C [4]: 1.1 µM
- critical concentration for polymerization C (C-Pol) (= 1/Kp) [5]: 1.6 µM
- dH [6]: 5.57 kJmol^−1
- critical concentration for polymerization C (C-Pol) (= 1/Kp) [7]: 1.1 µM
- stoichiometry N [8]: > 120 subunits
Molecule: Methanocaldococcus jannaschii FtsZ-his6 fusion protein (from UniProt Q57816 1-364) (natural protein)

B1: Wild type Escherichia coli FtsZ (natural protein, UniProt P0A9A6 1-383, looked up)
chain: MFEPMELTNDAVIKVIGVGGGGGNAVEHMVRERIEGVEFFAVNTDAQALRKTAVGQTIQIGSGITKGLGAGANPEVGRNAADEDRDALRAALEGADMVFIAAGMGGGTGTGAAPVVAEVAKDLGILTVAVVTKPFNFEGKKRMAFAEQGITELSKHVDSLITIPNDKLLKVLGRGISLLDAFGAANDVLKGAVQGIAELITRPGLMNVDFADVRTVMSEMGYAMMGSGVASGEDRAEEAAEMAISSPLLEDIDLSGARGVLVNITAGFDLRLDEFETVGNTIRAFASDNATVVIGTSLDPDMNDELRVTVVATGIGMDKRPEITLVTNKQVQQPVMDRYQQHGMAPLTQEQKPVAKVVNDNAPQTAKEPDYLDIPAFLRKQAD
notes: Cell division protein FtsZ, Escherichia coli, wild type; assembly was started with 1 mM GTP; also called EcFtsZ; mesophilic EcFtsZ; source: E. coli BL21 (DE3), overexpressed, purified (polymerization-depolymerization cycles)
- stoichiometry N [9]: > 120 subunits
- dH [10]: -18.4 kJmol^−1
